Test results reported in patent US20250137032A1, “TWO-COMPONENT SYSTEMS FOR USE IN CELL-FREE GENE EXPRESSION” (priority 2023, published 2025).
“Also recorded” adds a separate entry of the source.

Target: T1, NarX (Escherichia coli, UniProt P0AFA2, T450I/V366A)
T1 construct: All genes were; made in house; host or cells: cell-free expression in situ, myTXTL E. coli extract (Arbor Biosciences), with synthetic lipid vesicles
Assay: Cell-free NarX-L system encapsulated in giant unilamellar vesicles
Format: biochemical, E. coli
Details: GUV-encapsulated NarX-L, nitrate dependent signaling (FIG. 16)
Source text: Over the last decade, many promising cell-free systems have been developed, enabling the delivery and sensing of a wide array of ligands in non-ideal environments. Cell-free systems have been encapsulated and administered to mice (47), lyophilized and used in resource limited settings (6, 7), and integrated into wearable materials to sense environmental contaminants (8). Towards the goal of creating cell-mimetic particles which can sense environmental stimuli in complex environments, such as the body, we encapsulated our cell-free system into giant unilamellar vesicles using the emulsion transfer method (FIG. 5A). We encapsulated cell-free extract containing plasmids encoding NarX, NarL, and the downstream protein (luciferase or mEGFP) into membranes composed of 1 POPC: 1 cholesterol and a rhodamine conjugated lipid. We hypothesized that by encapsulating cell-free reaction components into vesicles, NarX could insert into membranes and initiate signaling in response to exogenously added nitrate. […]
For samples containing the luciferase plasmid, 0.5 μL of NanoGlo Luciferase substrate was added to the reaction, and reactions were read on a Molecular Devices Spectra Max i3 plate reader. […] Images were analyzed using the Nikon NIS software.

T1 sequence (P0AFA2 other isoform, or with tags, fused parts or gaps V366A/T450I): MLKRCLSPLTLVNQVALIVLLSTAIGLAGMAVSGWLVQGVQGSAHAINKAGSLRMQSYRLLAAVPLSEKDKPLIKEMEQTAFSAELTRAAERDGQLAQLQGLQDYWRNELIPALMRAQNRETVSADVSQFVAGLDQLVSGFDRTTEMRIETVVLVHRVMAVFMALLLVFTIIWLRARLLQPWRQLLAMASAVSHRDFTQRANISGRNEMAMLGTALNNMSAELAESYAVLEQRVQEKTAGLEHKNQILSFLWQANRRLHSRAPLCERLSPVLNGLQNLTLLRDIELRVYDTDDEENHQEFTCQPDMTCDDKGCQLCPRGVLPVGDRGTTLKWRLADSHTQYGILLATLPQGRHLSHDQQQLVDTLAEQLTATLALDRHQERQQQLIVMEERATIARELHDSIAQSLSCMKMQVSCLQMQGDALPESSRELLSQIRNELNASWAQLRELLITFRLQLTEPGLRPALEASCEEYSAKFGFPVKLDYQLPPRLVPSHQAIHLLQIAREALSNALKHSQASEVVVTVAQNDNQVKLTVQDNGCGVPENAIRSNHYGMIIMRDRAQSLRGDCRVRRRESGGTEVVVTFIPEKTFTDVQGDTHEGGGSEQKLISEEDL

B1: Proteinase K: protease added to the outside of vesicles (protein, UniProt P06873 106-384, looked up)
Proteinase K: AAQTNAPWGLARISSTSPGTSTYYYDESAGQGSCVYVIDTGIEASHPEFEGRAQMVKTYYYSSRDGNGHGTHCAGTVGSRTYGVAKKTQLFGVKVLDDNGSGQYSTIIAGMDFVASDKNNRNCPKGVVASLSLGGGYSSSVNSAAARLQSSGVMVAVAAGNNNADARNYSPASEPSVCTVGASDRYDRRSSFSNYGSVLDIFGPGTSILSTWIGGSTRSISGTSMATPHVAGLAAYLMTLGKTTAASACRYIADTANKGDLSNIPFGTVNLLAYNNYQA
- effect on encapsulated TCS signaling when added outside of vesicles: signaling was inhibited; also recorded: is inhibited
